From the DeepSol protein solubility set

Assay: soluble on expression in E. coli; label from the status in PepcDB or PDB records

| Sequence | soluble on expression in E. coli |
| --- | --- |
| MGKTSKYVTAAALCSTIVMGGLHASSVSYAATNPTVATLQSDAKLLNDFKKELKKQIDNREENITITYKTKDRNARNIMDELYGEFNKIVDADEYVKYNIASTRYSIKGLPGNYTFTLQVKYRESKEQTQYVKSQAKAIIGSIVKPGMDEHEKVKAIHDYVVKHVSYDTSYQAYTAYEALANRSAVCQGYTLLTYELLKEAGIQNRIVTGTGNGQAHSWNLVNIENKWYHLDTTFDDPVPDKAGRVTYSYFNMSDEQLSKDHDWDRSKYPAATTSYFNELTNKIKAGSSKTATYEQMLKETNLKYLSAQYGADNYSEFKEKLQQQFASKPEKVEVRYKQSMDGTMQDIKKVLNEINWPKGAKRVSYQVAPYSAMADYSLATITFTY | not soluble |
| MGLDKGKQQTAKKPGFNCKPFEFEISSTKFQIPNDKPLKYTLKCTADEKQDVIIQVHSVFFEIVGARRKHGVTSQEFHVLGKNEEMTFEIGLKDLTNVSYDNFEHAQLASAAGFITFTHYKSSRDDDSDASWGPNKNLLIVITDGMEEVGFWKKKLSVETETDEMKKVKEEFGVKLEGEKKYEEIDKMEMDRMRKEIGKNQSARDDGFAPIKDMHKKYLKEKYECVIS | soluble |
| MGLIKTIGRKPSVQWALSHLASGYLRLVRRTNRFTLEPADAYARLDAFGPFIAAMWHGQHIMISFMSRPQDRVATIISRSPDGNINTMALTRMGVRVMRASGARGRAVKDARAKGGAEGLRAMVKALKGGETVAFSADVPKVSRVCDAGIILLARFSGAPIVPVAVVTSRHIRFNSWDRACLGLPFGRGAMVFGEATFVPREVTPEEVDALRQRVQDELNRVHDRAYTLVGLEHHHHHH | soluble |
| MGLIMAKLFQSWWIGKKYKIIVVGLDNAGKTTILYNYVTKDQVETKPTIGSNVEEVSYRNLDFVIWDIGGQESLRKSWSTYYVQTDVVIVVIDSSDTTRIPIMKEQLHNMLQHEDLARAHILVLANKQDLPGAMNPAEVSTQLGLQTLRGARKWQINGCCAVKGEGLPEALEWIANNL | not soluble |
| MGLLAHFLKGPHKKTTLLLTRAGPVENPRHVLYSHPGLPLSPKGRSALLALLPLLQGFPVAHVYAADSLAEAEAARLFAEALGVPYTLLPELRERAWGAWEGLSFPEVEARFPGAVAAWTADEAGFAPPGGESVREAWERGRRAVKALLGKHRGQAILVVGNCTLNRAALSLALPLPPEEGLRLEQDYARLSVVDFYGEEGVVKALNLAVDWGHDPARGPQGPPGAS | soluble |
| MGLRDRFSNYLFKKAEKRGYLDNVLGKSIRYSGVYVTDSNILQSSDVYELLQDISNQMVLADIVVEDEFGNEIKDDIALQILRNPNNYLTQSEFIKLMTNTYLLEGETFPILNGAQIHLASNVFTELDDNLVEHFNIGGHEIPPCMIRHVKNIGADHLRGKGILDLGRDTLEGVMSAEKTLTDKYKKGGLLTFLLNLDAHINPQNGAQSKLINAILDQLESIDEARSVKMIPLGKGYSIDTLKSPLDDEKTLAYLNVYKKDLGKFLGINVDTYTELIKEDIEKAMMYIHNKAVRPIMKNFEDHLSLLFYAQNSGKRIKFKINILDFVTYSNKTNIGYNLVRTAITSPDNVADMLGFPKQNTKESQAIYISNDVTEIGKKEATDGSLGGGEENEN | not soluble |
| MGLRNENGIVVYPLINGAYRVAASDNYTSNFGLEWNTFQKTQIDKFSGNTVSEERLFAQTNWQKNGLEGETILEVGSGAGRFSQIMLDHTKATLYSVDYSEAVEANYRNNGPHERFKLFQASIYELPFKQASFDRVICLGVLQHTPDFKASVKALVEMVKPGGELVIDFYPIRNVFTKVHGKYLLRPILKRVNHHRLMSLIRNNIDFLISIYTFNRRIGLGVFNRFVPICEIERTLPKGMTPEQLKEWIILDTFDMFSPEYDQPQRLSTVAKWVKEFGMADVDASWVTYHGLEHHHHHH | not soluble |
| MGLTAGIVGLPNVGKSTLFNAITQAGAESANYPFCTIDPNVGIVEVPDERLNKLTELVEPKKTVPTVFEFTDIAGIVKGASKGEGLGNKFLSHIRQVDAICQVVRCFEDENITHVSGKVDPIDDIETINLELILADLESVDKRIERVAKLARQKDKEAVYEHEILVRLKEAFEEGKPARTVEFTEEQMKIVKGLHLLTTKEMLYVANVSEDDVIDPSENKYVQMVKEFAANENSQVIVVCAKIESEIAELDEEEKKVFLEELGIEESGLDQLIRAAYDLLGLATYFTAGVQEVRAWTFKQGMKAPQCAGVIHTDFERGFIRAETVSYEDLMTNGSMTAAKEAGKVRLEGKEYIVKDGDVMHFRFNV | soluble |
| MGLVQTNDQQLFIGVDGGGSKCRATIYTADGTVLGTGVAGRANPLHGLAQTFESIEASAHQALLDAGMKATDSHLLVAGLGLAGVNVPRLYQDVVNWQHPFAAMYVTTDLHTACIGAHRGADGAVIITGTGSCGYAHVGDASLSIGGHGFALGDKGSGAWLGLKAAEHVLLALDGFATPTALTEMLLSHLGVKDALGIVEHLAGKSSSCYAQLARNVLDCANAGDQVAIAIVQEGADYISEMARKLFMLNPVRFSMIGGLAEPLQAWLGSDVVAKISETLAPPELGAMYYAQQQFNSATVLEHHHHHH | soluble |
| MGNICIGGPRMSQQVYSPERADTPQRNALREQTEADIEQNSESMRLQQKIDDLKPYVSNATGPMKAYGQAAMDRASGKKTYVSFAELDAEHLDAMVDVENQRNPDLNLRYFKHHKEFIQALESDGPSSFRAIYPLTKPRTGQAAKHHVMADVRLTPCEPPSIVITEPGVIVGKRNKQLHRHNQTLEDLSESGVQLSQVAIIETQAQKTPDDCVMYCLNYAIKAHKNADKFDDIHHGLQRGTFVNRINGRRVQDADHCGHF | not soluble |
| MGNNVVVLGTQWGDEGKGKIVDLLTERAKYVVRYQGGHNAGHTLVINGEKTVLHLIPSGILRENVTSIIGNGVVLSPAALMKEMKELEDRGIPVRERLLLSEACPLILDYHVALDNAREKARGAKAIGTTGRGIGPAYEDKVARRGLRVGDLFDKETFAEKLKEVMEYHNFQLVNYYKAEAVDYQKVLDDTMAVADILTSMVVDVSDLLDQARQRGDFVMFEGAQGTLLDIDHGTYPYVTSSNTTAGGVATGSGLGPRYVDYVLGILKAYSTRVGAGPFPTELFDETGEFLCKQGNEFGATTGRRRRTGWLDTVAVRRAVQLNSLSGFCLTKLDVLDGLKEVKLCVAYRMPDGREVTTTPLAADDWKGVEPIYETMPGWSESTFGVKDRSGLPQAALNYIKRIEELTGVPIDIISTGPDRTETMILRDPFDA | soluble |
| MGNQYVKPERTGNSPYTRSGVPPPALVKTGDKPLHRVNDRMSLELHMADERVRAAGLSPAEREWRKKWVHDQHLHADEPVVVDAVHRQLNPIRTAYRLPWDKFYLHYLKPTFGVYYGTAIRVTAPKLLMAFVVVQTAYYYWKYEVKDWTHLRGLESMPQKEVIASAPAIEEKFPGLMDKGLANPSKDDYYTPTFNKRTAYLDVGETKRPW | not soluble |
| MGPTPHIAVIGGGSTGAGIARDLAMRGLDVTLVEQGNLTHGTTGRMHGLLHSGGRYAVSDQASATECIEENRVLRDIASHCVEMTGGLFVKRPEDSEEYFQKKLNGCEECGIPAEVVSGEEARAMEPHLAKDIDKAISVPDGAIDPFRLVVANAASAQEHGARIETHTKVTDLLVESGEVVGIEVEHDSGPGKRVHGTEGGTEQIRADYVVNATGAWAGRIGDMAGLDIEVRPSKGVMTIMNIRQVDTVINRCRPKGDADIVVPHETTAILGTTDEEVEDPEDYPEEQWEVDMMIDTLSELIPMLDEARTIRSFWGVRPLYEPPDVGSDDPTDITRDFFLLDHDERDDLPGMTSIVGGKFTTYRMMGEQIADHVCGKFGIDADCRTADEPLPGSEDFSVLRDYMDEFGLRSPIGRRSVERLGSRADDVLKTDGPNPTVCACEGVTRAEIQDAIGGSGSDLNAVRIRTRASMGNCQGGFCSHRMASELHSEYDEPVVREAWDELLQERWKGQRHALWGEQLSQAALNYALHATTQNRDQDPADGEPVDFSAFDSGRGQTGGSVDSADVAADGGTNGYLEHHHHHH | not soluble |
| MGQEVSLLAVKTEPLNSSETTATTGDGALDTFTGSVITSSGYSPRSAHQYSPQLYPSKPYPHILSTPAAQTMSAYAGQTQYSGMQQPAVYTAYSQTGQPYSLPTYDLGVMLPAIKTESGLSQTQSPLQSGCLSYSPGFSTPQPGQTPYSYQMPGSSFAPSSTIYANNSVSNSTNFSGSQQDYPSYTAFGQNQYAQYYSASTYGAYMTSNNTADGTPSSTSTYQLQESLPGLTNQPGEFDTMQSPSTPIKDLDERTCRSSGSKSRGRGRKNNPSPPPDSDLERVFVWDLDETIIVFHSLLTGSYAQKYGKDPPMAVTLGLRMEEMIFNLADTHLFFNDLEECDQVHIDDVSSDDNGQDLSTYSFATDGFHAAASSANLCLPTGVRGGVDWMRKLAFRYRRVKELYNTYKNNVAGLLGPAKRDAWLQLRAEIEGLTDSWLTNALKSLSIISTRSNCINVLVTTTQLIPALAKVLLYSLGGAFPIENIYSATKIGKESCFERIMQRFGRKVVYVVIGDGVEEEQAAKKHNMPFWRISSHSDLLALHQALELEYL | not soluble |
| MGQFPRTVVHAAGTTEITTKPERVVVLDTGELDSVLSLGITPVGMTTTKGANPVPSYLADKVKDVERVGTINELNIEAIAALKPDLIIGSQLRADKLYPQLSDIAPTVFSIRPGSPWKENFLLVGEALGMEKEAEEKLNEYADRVAELKNNVPQNTEVSLVRFMPNKLRLYGNKSLIGVVLADAGLARPEKQNVDDLAVEISPENIDQAAGSVIFYTSYGKPDATGETAVVEGPAWKNLEAVAAGKAHRVNDDVWFLGLGPTGAMEIVSDLHDYLLEHHHHHH | soluble |
| MGQGANILGFGGDRSFNLAGNRAGFALGSNNGALVGGQRVGVDGGIGGGREGVEMGSQVQFGNEPNPGHPAGQFGSFMDNVKNFFSFLGRGMPMPPQQPPPSPPFSLGVTRPPTLIGTERSESENGGRHRPRPWFPEGEQIPEVTGEMRPKEGEAGISSSSSSSSETEFIGPNNGEIPRKSVEFSIDKEPREEFTEDLFTAQTSRPRELPGLIEFA | not soluble |
| MGQMADRLAALVVTAFSPDGQIEGSYGAAAGANIRFNGNSYRHYTERGLGHQLSRMAVLVWIAHQRGHDATVAEVTGQPVSRRQETWDARRRRFREEQAETESEGMSTGGLVYFRNTGMRDWHIVIRDGTLSKLDEPEFVKEFLSGYAALSLDYRHKMTKLRTKHYGPDIWMKK | not soluble |
| MGQPPAEEAEQPGALAREFLAAMEPEPAPAPAPEEWLDILGNGLLRKKTLVPGPPGSSRPVKGQVVTVHLQTSLENGTRVQEEPELVFTLGDCDVIQALDLSVPLMDVGETAMVTADSKYCYGPQGSRSPYIPPHAALCLEVTLKTAVDLEHHHHHH | soluble |
| MGQTVNEDSMDVKKENQEKTPQSSTSSVQRDDFHWEEYLKETGSISAPSECFRQSQIPPVNDFKVGMKLEARDPRNATSVCIATVIGITGARLRLRLDGSDNRNDFWRLVDSPDIQPVGTCEKEGDLLQPPLGYQMNTSSWPMFLLKTLNGSEMASATLFKKEPPKPPLNNFKVGMKLEAIDKKNPYLICPATIGDVKGDEVHITFDGWSGAFDYWCKYDSRDIFPAGWCRLTGDVLQPPGTS | soluble |
| MGRAMGDSFTFIFNPAADKGRAADKTALIERSLAHFEVASLETTRFAGHAAEIARAAAGEGSTLIACGGDGTLNEVVNAVAGQPVKVGVLPVGSANDFLKTFNPSAKEHEVRIRGFAGATSRKVDLGKVEFGGGESRYFVNSIGIGFTGRIASTVKSVKWLRGELSYAWALVSVLLGYSAVKMHITLDTVEGKIELDEPVFAFSVSNGRVEGGKFRIAPEADPFDGLLDVCILKAVSKWRVPGYVLKYLKGSQIHDPNVIYCKARSVEVFLSVSEAMHMDGEVIEKVGGAIAITAEPLAVEMLYEP | not soluble |
| MGRGIAQIIRHDEPTDEIVDKFYRQINNPVLANINLQWEGDGDSPIIYPCNPPDLFAEQPLVLFGKKPDARGGKLHITGIVAGGTHYQHTFDLNFEETGNPAIAQLWGRYRIKELMNLMVSGETKLGVEAVTDTALTYQMLSQYTAFVAVSDDVRVDSLQETVSVQVPVEMAEGISYLGIFGSAVSAAAPIMANMVLEHHHHHH | not soluble |
